Values quoted from earlier work, collected in PMC11316025.

Target: KRAS (Homo sapiens) (UniProt P01116)

Sequence of RASSF5 (Q8WWW0 whole entry): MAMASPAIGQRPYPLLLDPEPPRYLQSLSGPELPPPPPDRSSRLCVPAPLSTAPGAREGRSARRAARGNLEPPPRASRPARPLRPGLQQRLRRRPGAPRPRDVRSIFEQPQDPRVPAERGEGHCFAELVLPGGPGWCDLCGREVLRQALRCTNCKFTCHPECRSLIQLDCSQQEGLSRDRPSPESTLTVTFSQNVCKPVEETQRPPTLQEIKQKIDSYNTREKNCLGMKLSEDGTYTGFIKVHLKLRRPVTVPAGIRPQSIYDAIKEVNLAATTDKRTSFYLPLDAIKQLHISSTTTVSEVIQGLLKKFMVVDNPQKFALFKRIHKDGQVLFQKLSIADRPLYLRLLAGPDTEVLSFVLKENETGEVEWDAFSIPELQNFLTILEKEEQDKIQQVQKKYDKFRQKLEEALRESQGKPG

Kd: 1.7 µM
Substance: RASSF5 (from UniProt Q8WWW0)
